In PMC9763398:

Tests used:
[1] = biological target: DYRK1A (UniProt Q13627); test: immunofluorescence co-localisation, confocal overlap index
[2] = biological target: TGF-β receptor 1 (UniProt P36897); test: co-immunoprecipitation, western blot; settings: reference: wild type Hsp90ab1; sites S225,S254

Substance | other: average overlap index ([1]; reference: wild type Hsp90ab1, sites S225,S254) | binding against the reference [2] | other: average overlap index ([1]; reference: wild type β-catenin, sites T551,S552)
Hsp90ab1 (from UniProt P08238) S225A S254A Hsp90ab1 | weaker; reference 0.5378 | weaker | –
β-catenin (from UniProt P35222) T551A S552A β-catenin | – | – | weaker; reference 0.8419
